Results on one molecule are retold here after US20210340209A1 (IMMUNE TARGETING, published 2021).

The assay deals with T1, human IL-2 mutant V1 (human, UniProt P60568 21-153).
T1 construct: Mutein found by yeast surface display screen; the ELISA format (any tag or Fc) is not described; also called IL-2 mutein
T1 chain: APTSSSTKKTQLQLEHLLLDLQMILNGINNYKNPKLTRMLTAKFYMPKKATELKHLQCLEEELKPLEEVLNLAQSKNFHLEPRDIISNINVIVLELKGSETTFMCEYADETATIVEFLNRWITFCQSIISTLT
Description: ELISA. (An ELISA detects its analyte on a solid surface through an enzyme-linked reagent.)

B1: human IL-2R beta (receptor)
chain: AVNGTSQFTCFYNSRANISCVWSQDGALQDTSCQVHAWPDRRRWNQTCELLPVSQASWACNLILGAPDSQKLTTVDIVTLRVLCREGVRWRVMAIQDFKPFENLRLMAPISLQVVHVETHRCNISWEISQASHYFERHLEFEARTLSPGHTWEEAPLLTLKQKQEWICLETLTPDTQYEFQVRVKPLQGEFTTWSPWSQPLAFRTKPAALGKDT
notes: Soluble IL-2R beta reagent, titrated on yeast and used in ELISA; also called IL-2 receptor beta
On to B1, for which the “fold stronger binding than to IL-2 WT” value is roughly 20 times.
